Measurements published in publication PMC3084762, “Distinct Properties of Hexameric but Functionally Conserved Mycobacterium tuberculosis Transcription-Repair Coupling Factor” (PLoS ONE, 2011).

B1: Mycobacterium tuberculosis Mfd (transcription-repair coupling factor), full length, His-tagged (natural protein)
chain: MTAPGPACSDTPIAGLVELALSAPTFQQLMQRAGGRPDELTLIAPASARLLVASALARQGPLLVVTATGREADDLAAELRGVFGDAVALLPSWETLPHERLSPGVDTVGTRLMALRRLAHPDDAQLGPPLGVVVTSVRSLLQPMTPQLGMMEPLTLTVGDESPFDGVVARLVELAYTRVDMVGRRGEFAVRGGILDIFAPTAEHPVRVEFWGDEITEMRMFSVADQRSIPEIDIHTLVAFACRELLLSEDVRARAAQLAARHPAAESTVTGSASDMLAKLAEGIAVDGMEAVLPVLWSDGHALLTDQLPDGTPVLVCDPEKVRTRAADLIRTGREFLEASWSVAALGTAENQAPVDVEQLGGSGFVELDQVRAAAARTGHPWWTLSQLSDESAIELDVRAAPSARGHQRDIDEIFAMLRAHIATGGYAALVAPGTGTAHRVVERLSESDTPAGMLDPGQAPKPGVVGVLQGPLRDGVIIPGANLVVITETDLTGSRVSAAEGKRLAAKRRNIVDPLALTAGDLVVHDQHGIGRFVEMVERTVGGARREYLVLEYASAKRGGGAKNTDKLYVPMDSLDQLSRYVGGQAPALSRLGGSDWANTKTKARRAVREIAGELVSLYAKRQASPGHAFSPDTPWQAELEDAFGFTETVDQLTAIEEVKADMEKPIPMDRVICGDVGYGKTEIAVRAAFKAVQDGKQVAVLVPTTLLADQHLQTFGERMSGFPVTIKGLSRFTDAAESRAVIDGLADGSVDIVIGTHRLLQTGVRWKDLGLVVVDEEQRFGVEHKEHIKSLRTHVDVLTMSATPIPRTLEMSLAGIREMSTILTPPEERYPVLTYVGPHDDKQIAAALRRELLRDGQAFYVHNRVSSIDAAAARVRELVPEARVVVAHGQMPEDLLETTVQRFWNREHDILVCTTIVETGLDISNANTLIVERADTFGLSQLHQLRGRVGRSRERGYAYFLYPPQVPLTETAYDRLATIAQNNELGAGMAVALKDLEIRGAGNVLGIEQSGHVAGVGFDLYVRLVGEALETYRDAYRAAADGQTVRTAEEPKDVRIDLPVDAHLPPDYIASDRLRLEGYRRLAAASSDREVAAVVDELTDRYGALPEPARRLAAVARLRLLCRGSGITDVTAASAATVRLSPLTLPDSAQVRLKRMYPGAHYRATTATVQVPIPRAGGLGAPRIRDVELVQMVADLITALAGKPRQHIGITNPSPPGEDGRGRNTTIKERQP
notes: also called MtbMfd; His-tagged MtbMfd; not shown: His tag, N-terminal, kept
B2: purified untagged or native MtbMfd (natural protein)
chain: MTAPGPACSDTPIAGLVELALSAPTFQQLMQRAGGRPDELTLIAPASARLLVASALARQGPLLVVTATGREADDLAAELRGVFGDAVALLPSWETLPHERLSPGVDTVGTRLMALRRLAHPDDAQLGPPLGVVVTSVRSLLQPMTPQLGMMEPLTLTVGDESPFDGVVARLVELAYTRVDMVGRRGEFAVRGGILDIFAPTAEHPVRVEFWGDEITEMRMFSVADQRSIPEIDIHTLVAFACRELLLSEDVRARAAQLAARHPAAESTVTGSASDMLAKLAEGIAVDGMEAVLPVLWSDGHALLTDQLPDGTPVLVCDPEKVRTRAADLIRTGREFLEASWSVAALGTAENQAPVDVEQLGGSGFVELDQVRAAAARTGHPWWTLSQLSDESAIELDVRAAPSARGHQRDIDEIFAMLRAHIATGGYAALVAPGTGTAHRVVERLSESDTPAGMLDPGQAPKPGVVGVLQGPLRDGVIIPGANLVVITETDLTGSRVSAAEGKRLAAKRRNIVDPLALTAGDLVVHDQHGIGRFVEMVERTVGGARREYLVLEYASAKRGGGAKNTDKLYVPMDSLDQLSRYVGGQAPALSRLGGSDWANTKTKARRAVREIAGELVSLYAKRQASPGHAFSPDTPWQAELEDAFGFTETVDQLTAIEEVKADMEKPIPMDRVICGDVGYGKTEIAVRAAFKAVQDGKQVAVLVPTTLLADQHLQTFGERMSGFPVTIKGLSRFTDAAESRAVIDGLADGSVDIVIGTHRLLQTGVRWKDLGLVVVDEEQRFGVEHKEHIKSLRTHVDVLTMSATPIPRTLEMSLAGIREMSTILTPPEERYPVLTYVGPHDDKQIAAALRRELLRDGQAFYVHNRVSSIDAAAARVRELVPEARVVVAHGQMPEDLLETTVQRFWNREHDILVCTTIVETGLDISNANTLIVERADTFGLSQLHQLRGRVGRSRERGYAYFLYPPQVPLTETAYDRLATIAQNNELGAGMAVALKDLEIRGAGNVLGIEQSGHVAGVGFDLYVRLVGEALETYRDAYRAAADGQTVRTAEEPKDVRIDLPVDAHLPPDYIASDRLRLEGYRRLAAASSDREVAAVVDELTDRYGALPEPARRLAAVARLRLLCRGSGITDVTAASAATVRLSPLTLPDSAQVRLKRMYPGAHYRATTATVQVPIPRAGGLGAPRIRDVELVQMVADLITALAGKPRQHIGITNPSPPGEDGRGRNTTIKERQP
notes: also called untagged MtbMfd
B3: MtbMfd, endogenous in M. tuberculosis H37Ra cell lysate (natural protein)
chain: MTAPGPACSDTPIAGLVELALSAPTFQQLMQRAGGRPDELTLIAPASARLLVASALARQGPLLVVTATGREADDLAAELRGVFGDAVALLPSWETLPHERLSPGVDTVGTRLMALRRLAHPDDAQLGPPLGVVVTSVRSLLQPMTPQLGMMEPLTLTVGDESPFDGVVARLVELAYTRVDMVGRRGEFAVRGGILDIFAPTAEHPVRVEFWGDEITEMRMFSVADQRSIPEIDIHTLVAFACRELLLSEDVRARAAQLAARHPAAESTVTGSASDMLAKLAEGIAVDGMEAVLPVLWSDGHALLTDQLPDGTPVLVCDPEKVRTRAADLIRTGREFLEASWSVAALGTAENQAPVDVEQLGGSGFVELDQVRAAAARTGHPWWTLSQLSDESAIELDVRAAPSARGHQRDIDEIFAMLRAHIATGGYAALVAPGTGTAHRVVERLSESDTPAGMLDPGQAPKPGVVGVLQGPLRDGVIIPGANLVVITETDLTGSRVSAAEGKRLAAKRRNIVDPLALTAGDLVVHDQHGIGRFVEMVERTVGGARREYLVLEYASAKRGGGAKNTDKLYVPMDSLDQLSRYVGGQAPALSRLGGSDWANTKTKARRAVREIAGELVSLYAKRQASPGHAFSPDTPWQAELEDAFGFTETVDQLTAIEEVKADMEKPIPMDRVICGDVGYGKTEIAVRAAFKAVQDGKQVAVLVPTTLLADQHLQTFGERMSGFPVTIKGLSRFTDAAESRAVIDGLADGSVDIVIGTHRLLQTGVRWKDLGLVVVDEEQRFGVEHKEHIKSLRTHVDVLTMSATPIPRTLEMSLAGIREMSTILTPPEERYPVLTYVGPHDDKQIAAALRRELLRDGQAFYVHNRVSSIDAAAARVRELVPEARVVVAHGQMPEDLLETTVQRFWNREHDILVCTTIVETGLDISNANTLIVERADTFGLSQLHQLRGRVGRSRERGYAYFLYPPQVPLTETAYDRLATIAQNNELGAGMAVALKDLEIRGAGNVLGIEQSGHVAGVGFDLYVRLVGEALETYRDAYRAAADGQTVRTAEEPKDVRIDLPVDAHLPPDYIASDRLRLEGYRRLAAASSDREVAAVVDELTDRYGALPEPARRLAAVARLRLLCRGSGITDVTAASAATVRLSPLTLPDSAQVRLKRMYPGAHYRATTATVQVPIPRAGGLGAPRIRDVELVQMVADLITALAGKPRQHIGITNPSPPGEDGRGRNTTIKERQP

Key:
NTD of MtbMfd = biological target: T1, NTD of MtbMfd (Mycobacterium tuberculosis, UniProt P9WMQ5)
T1 construct: gene mfd

SEC = biological target: the molecule itself; test: SEC
dynamic light scattering = biological target: the molecule itself; test: dynamic light scattering

Molecule	Ksv (NTD of MtbMfd) [µM]	stoichiometry N (SEC)	stoichiometry N (dynamic light scattering)
Nc1ncnc2c1ncn2[C@@H]1O[C@H](COP(=O)(O)OP(=O)(O)OP(=O)(O)O)[C@@H](O)[C@H]1O [ATP]	526	–	–
B1	–	6	~6
B2	–	6	–
B3	–	6	–
